Source: patent publication US20170313764A1 (ACADEMISCH MEDISCH CENTRUM, published 2017)

T1: soluble E2-his6-sortase tag from HCV isolate AMS.2b.20876551.kloon21 (genotype 2b) (Hepatitis C virus genotype 2b)
T1 chain: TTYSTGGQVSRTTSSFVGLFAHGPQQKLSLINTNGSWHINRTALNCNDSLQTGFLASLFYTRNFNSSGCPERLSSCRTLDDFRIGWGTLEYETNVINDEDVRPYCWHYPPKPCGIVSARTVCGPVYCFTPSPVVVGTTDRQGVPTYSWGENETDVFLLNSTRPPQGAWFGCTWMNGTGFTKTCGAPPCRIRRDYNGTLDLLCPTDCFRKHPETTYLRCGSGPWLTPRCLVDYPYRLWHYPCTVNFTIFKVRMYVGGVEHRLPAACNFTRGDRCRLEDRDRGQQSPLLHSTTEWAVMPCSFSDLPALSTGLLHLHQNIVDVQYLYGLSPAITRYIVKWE


What was measured:
[1] = target: E1E2 of HCV isolate H77 with single mutation W420A (Hepatitis C virus genotype 1a, strain …, UniProt P27958 192-383; P27958 384-746); experiment: ELISA, GNA-captured E1E2 lysate; EC50 wild type / EC50 mutant
[2] = target: E1E2 of HCV isolate H77 with single mutation L413A (Hepatitis C virus genotype 1a, strain …, UniProt P27958 192-383; P27958 384-746); experiment: as above
[3] = target: E1E2 of HCV isolate H77 with single mutation G418A (Hepatitis C virus genotype 1a, strain …, UniProt P27958 192-383; P27958 384-746); experiment: as above
[4] = target: E1E2 of HCV isolate AMS.4d.20875969 (genotype 4d) (Hepatitis C virus genotype 4d); experiment: cell-based or functional assay
[5] = target: E1E2 of HCV isolate AMS.2b.20876551.kloon21 (genotype 2b) (Hepatitis C virus genotype 2b); experiment: cell-based or functional assay
[6] = target: E1E2 of HCV isolate AMS.1b.20877857 (genotype 1b) (Hepatitis C virus genotype 1b); experiment: cell-based or functional assay
[7] = target: E1E2 of HCV isolate UKN4.11.1 (genotype 4) (Hepatitis C virus genotype 4); experiment: cell-based or functional assay
[8] = target: E1E2 of HCV isolate H77 (genotype 1a), wild type (Hepatitis C virus genotype 1a, strain …, UniProt P27958 192-383; P27958 384-746); experiment: cell-based or functional assay
[9] = target: E1E2 of HCV isolate AMS.3a.21071213 (genotype 3a) (Hepatitis C virus genotype 3a); experiment: cell-based or functional assay
[10] = target: T2, soluble E2-his6-sortase tag from HCV isolate H77 (genotype 1a) (Hepatitis C virus genotype 1a, strain …, UniProt P27958 384-717); experiment: SPR (IBIS MX96), antibody spotted on chip, soluble E2-his as analyte
T2 construct: also called E2-his6-ST; E2 genotype 1a

[11] = target: T1, soluble E2-his6-sortase tag from HCV …; experiment: as above
[12] = target: E1E2 of HCV isolate H77 with single mutation A439G (Hepatitis C virus genotype 1a, strain …, UniProt P27958 192-383; P27958 384-746); experiment: ELISA, GNA-captured E1E2 lysate; EC50 wild type / EC50 mutant
[13] = target: E1E2 of HCV isolate H77 with single mutation T526A (Hepatitis C virus genotype 1a, strain …, UniProt P27958 192-383; P27958 384-746); experiment: as above
[14] = target: E1E2 of HCV isolate H77 with single mutation R657A (Hepatitis C virus genotype 1a, strain …, UniProt P27958 192-383; P27958 384-746); experiment: as above
[15] = target: E1E2 of HCV isolate H77 with single mutation D698A (Hepatitis C virus genotype 1a, strain …, UniProt P27958 192-383; P27958 384-746); experiment: as above
[16] = target: E1E2 of HCV isolate H77 with single mutation W529A (Hepatitis C virus genotype 1a, strain …, UniProt P27958 192-383; P27958 384-746); experiment: as above
[17] = target: E1E2 of HCV isolate H77 with single mutation L441A (Hepatitis C virus genotype 1a, strain …, UniProt P27958 192-383; P27958 384-746); experiment: as above
[18] = target: E1E2 of HCV isolate H77 with single mutation N415A (Hepatitis C virus genotype 1a, strain …, UniProt P27958 192-383; P27958 384-746); experiment: as above
[19] = target: E1E2 of HCV isolate H77 with single mutation T435A (Hepatitis C virus genotype 1a, strain …, UniProt P27958 192-383; P27958 384-746); experiment: as above

Binder | relative binding, mutant vs wild type [1] [%] | relative binding, mutant vs wild type [2] [%] | relative binding, mutant vs wild type [3] [%] | IC50, HCVpp neutralization [4] [µg/mL] | IC90, HCVpp neutralization [4] [µg/mL] | IC50, HCVpp neutralization [5] [µg/mL] | IC90, HCVpp neutralization [5] [µg/mL] | IC50, HCVpp neutralization [6] [µg/mL] | IC90, HCVpp neutralization [6] [µg/mL] | IC50, HCVpp neutralization [7] [µg/mL] | IC90, HCVpp neutralization [7] [µg/mL] | IC50, HCVpp neutralization [8] [µg/mL] | IC90, HCVpp neutralization [8] [µg/mL] | IC50, HCVpp neutralization [9] [µg/mL] | IC90, HCVpp neutralization [9] [µg/mL] | Kd [10] [nM] | koff [10] [s⁻¹] | Kd [11] [nM] | koff [11] [s⁻¹] | relative binding, mutant vs wild type [12] [%] | other results
AT12-007 (antibody, V domains shown) VH: QVQLEQSGAEVKKPGASVKVSCKVSGYTLTELSMHWVRQAPGKGLEWMGSFDPADGERLYAQKFQGRVIMSEDTSTDTAYMELSSLRSEDAAVYYCATAPRMTMFGVIMALDSWGQGTLVTVSS VL: DIQMTQSPSTLSASLGDRVTITCRASQNINKYLAWYQQKPGKAPKLLIYKASNLQSGVPSRFSGSGSGTDFILTISSLQPDDFATYYCQQYTTYSAWTFGQGTNVDIKR | 87 | 187 | 130 | > 50 | > 50 | 0.26 | 9.41 | 0.04 | 0.5 | 1.87 | > 50 | 2.67 | > 50 | 1.42 | 21.7 | 44 | 0.00184 | 3.8 | 0.00019 | 67 | relative binding, mutant vs wild type [13]: 31%; relative binding, mutant vs wild type [14]: 116%; relative binding, mutant vs wild type [15]: 103%; relative binding, mutant vs wild type [16]: < 10%; relative binding, mutant vs wild type [17]: < 10%; relative binding, mutant vs wild type [18]: 115%; relative binding, mutant vs wild type [19]: 84%
AT12-010 (antibody, V domains shown) VH: QLQLVQSGAEVKKPGSSVKVSCKASGGTFTSYAINWVRQVPGQGLEWMGEISPVFGTTHYAQKFQGRLKITADESADTAYMELSSLRSDDTAVYYCGRDRAPRLCSGGRCHSPPDHWGQGTLVTVSS VL: DIQMTQSPSSVSASVGDRVTITCRASQGFGNWLAWYQQKPGRAPKLLIFGASTLQNGVPSRFSGSASGTDFTLTITSLQPEDFATYYCLQTNTFPYTFGQGTKVEIKR | < 10 | 217 | 203 | > 50 | > 50 | 0.61 | 20.4 | 0.47 | 8.51 | > 50 | > 50 | 1.06 | > 50 | 1.41 | > 50 | 39.3 | 0.00142 | 22.8 | 0.00098 | 45 | relative binding, mutant vs wild type [13]: 29%; relative binding, mutant vs wild type [14]: 99%; relative binding, mutant vs wild type [15]: 86%; relative binding, mutant vs wild type [16]: < 10%; relative binding, mutant vs wild type [17]: < 10%; relative binding, mutant vs wild type [18]: 117%; relative binding, mutant vs wild type [19]: 47%
